Experimental data published in the RNAGym collection of RNA variant scans (doi:10.7554/elife.90254).

B1: LINE1-full (parent)
chain: UACGUAGGUGGUUUUCCCCUGAUAGUGCUAAGGGGGCCUGGAAGUUUGGACUGGGCAGAGCUCAACACAGCGUGGCAAAGUGGCUGUGGCUAGACUGCCUCUCUGGAUUCCUCGUCACUCAGCAGGGCAUCUCUGAGAGAAAUGCC

Variants of: B1
Test: self-cleavage, relative activity (ratio to wild type); higher = more cleavage; in vitro, sequencing; the parent is a self-cleaving ribozyme

Variant | self-cleavage
UACGCAGGUGGUUUUCCGCUGAUAGUGCUAAGGGGGCCUGGAAGUUUGGACUGGGCAGAGCUCAACACAGCGUGGCAAAGUGGCUGUGGCUAGACUGCCUCUCUGGAUUCCUCGUCACUCAGCAGGGCAUCUCUGAGAGAAAUGCC [U5C C18G] | 0.99
UACGCAGGUGGUUUUCCCCUGAUAGUGCUAAGGGGGCCUGGAAGUUUGGACUGGGCAGAGCUCAACACAGCGUGGCAAAGUGGCUGUGGUUAGACUGCCUCUCUGGAUUCCUCGUCACUCAGCAGGGCAUCUCUGAGAGAAAUGCC [U5C C90U] | 0.11
UACGCAGGUGGUUUUCCCCUGAUAGUGCUAAGGGGGCCUGGAAGUUUGGACUGGGCAGAGCUCAACACAGCGUGGCAAAGUGGCUGUGGCUAGACUGCCUCUCUGGAUUCCUCGUCACUCAGCAGGGCGUCUCUGAGAGAAAUGCC [U5C A129G] | 1.43
UACGCAGGUGGUUUUCCCCUGAUAGUGCUAAGGGGGCCUGGAAGUUUGGACUGGGCAGAGCUCAACACAGCGUGGCAAAGUGGCUGUGGCUAGACUGCCUCUCUGGAUUCCUCGUAACUCAGCAGGGCAUCUCUGAGAGAAAUGCC [U5C C116A] | 1.29
UACGCAGGUGGUUUUCCCCUGAUAGUGCUAAGGGGGCCUGGAAGUUUGGACUGGGCAGAGCUCAACACAGCGUGGCAAAGUGGCUGUGGCUAGACUGCCUCUCUGGAUUCCUCGUCACUCAGCAGGGCAUCUCUGAGCGAAAUGCC [U5C A138C] | 0
UACGCAGGUGGUUUUCCCCUGAUAGUGCUAAGGGGGCCUGGAAGUUUGGACUGGGCAGAGCUCAACACAGCGUGGCAAAGUGGCUGUGGCUAGAGUGCCUCUCUGGAUUCCUCGUCACUCAGCAGGGCAUCUCUGAGAGAAAUGCC [U5C C95G] | 0.17
UACGCAGGUGGUUUUCCCCUGAUAGUGCUAAGGGGGCCUGGAAGUUUGGACUGGGCAGAGCUCAACACAGCGUGGCAAAGUGGCUGUGGCUAGACUGCCUCUCUGGAUUCCUCGUCACUCAGCAGGGCAUCUCUGAGAGGAAUGCC [U5C A140G] | 1.12
UACGCAGGUGGUUUUCCCCUGAUAGUGCUAAAGGGGCCUGGAAGUUUGGACUGGGCAGAGCUCAACACAGCGUGGCAAAGUGGCUGUGGCUAGACUGCCUCUCUGGAUUCCUCGUCACUCAGCAGGGCAUCUCUGAGAGAAAUGCC [U5C G32A] | 1.06
UACGCAGGUGGUUUUCCCUUGAUAGUGCUAAGGGGGCCUGGAAGUUUGGACUGGGCAGAGCUCAACACAGCGUGGCAAAGUGGCUGUGGCUAGACUGCCUCUCUGGAUUCCUCGUCACUCAGCAGGGCAUCUCUGAGAGAAAUGCC [U5C C19U] | 1
UACGCAGGUGGUUUUCCCAUGAUAGUGCUAAGGGGGCCUGGAAGUUUGGACUGGGCAGAGCUCAACACAGCGUGGCAAAGUGGCUGUGGCUAGACUGCCUCUCUGGAUUCCUCGUCACUCAGCAGGGCAUCUCUGAGAGAAAUGCC [U5C C19A] | 0.8
UACGCAGGUGGUUUUCCCCUGAUAAUGCUAAGGGGGCCUGGAAGUUUGGACUGGGCAGAGCUCAACACAGCGUGGCAAAGUGGCUGUGGCUAGACUGCCUCUCUGGAUUCCUCGUCACUCAGCAGGGCAUCUCUGAGAGAAAUGCC [U5C G25A] | 1.34
UACGCAGGUGGUUUUCCCCUGAUAGUGCUAAGGGGGCCUGGAAGUUUGGACUGGGCAGAGCUCAACACAGUGUGGCAAAGUGGCUGUGGCUAGACUGCCUCUCUGGAUUCCUCGUCACUCAGCAGGGCAUCUCUGAGAGAAAUGCC [U5C C71U] | 0.68
UACGCAGGUGGUUUUCCCCUGAUAGUGCUAAGGGGGCCUGGAAGUUUGGACUGGGCAGAGCUCAACACAGCGUGGCAAAGUGGCUGUGGCUAGACUGCCUCUCUGGAUUCCUCGUCACUCAGCGGGGCAUCUCUGAGAGAAAUGCC [U5C A124G] | 1.15
UACGCAGGUGGUUUUCCCCUGAUAGUGCUAAGGGGGCCUGGAAGUUUGGACUGGGCAGAGCUCAACACAGCGUGGCAAAGUGGCUGUGGCUAGACUGCCUCUCUGGAUUCCUCGUCACUCAGCAGGGCAUCUCUGAGAGAUAUGCC [U5C A141U] | 0.73
UACGCAGGUGGUUUUCCCCUGAUAGUGCUAAGGGGGCCUGGAAGUUUGGACUGGGCAGAGCUCAACACAGCGUGGCAAAGUGGCUGUGGCUAGACUGCCUCUCUGGAUUCCUCGUCACUCAGCAGGGCAUCUCUGAGAGAAAUGCU [U5C C146U] | 0.69
UACGCAGGUGGUUUUCCCCUGAUAGUGCUAAGGGGGCCUGGAAGUUUGGACUGGGCAGAGCUCAACACAGCGUGGCAAAGUGGCUGUGGCUAGACUGCCUCUCUGGAUUCCUCGUCACUCAGCAGGGCAUCUCUGAGAGAACUGCC [U5C A142C] | 0.98
UACGCAGGUGGUUUUCCCCUGAUAGUGCUAAGGGGGCCUGGAAGUUUGGACUGGGCAGAGCUCAACACAGCGUGGCAAAGUGGCUGUGGCUAGACUGCCUCUCUGGAUUCCUAGUCACUCAGCAGGGCAUCUCUGAGAGAAAUGCC [U5C C113A] | 0.36
UACGCAGGUGGUUUUCCCCUGAUAGUACUAAGGGGGCCUGGAAGUUUGGACUGGGCAGAGCUCAACACAGCGUGGCAAAGUGGCUGUGGCUAGACUGCCUCUCUGGAUUCCUCGUCACUCAGCAGGGCAUCUCUGAGAGAAAUGCC [U5C G27A] | 0.17
UACGCAGGUAGUUUUCCCCUGAUAGUGCUAAGGGGGCCUGGAAGUUUGGACUGGGCAGAGCUCAACACAGCGUGGCAAAGUGGCUGUGGCUAGACUGCCUCUCUGGAUUCCUCGUCACUCAGCAGGGCAUCUCUGAGAGAAAUGCC [U5C G10A] | 0.51
UACGCAGGUGGUUUUCCCCUGAUAGUGCUAAGGGGGCCUGGAAGUUUGGACUGGGCAGAGCUCAACACAGCGUGGCAAAGUGGCUGUGGCUAGACUGCCUCUCUGGAUUCCUCGUCACUCAGUAGGGCAUCUCUGAGAGAAAUGCC [U5C C123U] | 0.45
